Results reported in the RNAGym collection of RNA variant scans (doi:10.1073/pnas.2313332121).
Fewer inactive variants are shown than the library holds.

B1: TPR 5TU (parent)
chain: GGAUCUUCUCGAUCUAACAAAAAAGACAAAUCUGCCACAAAGCUUGAGAGCAUCUUCGGAUGCAGAGGCGGCAGCCUUCGGUGGCGCGAUAGCGCCAACGUUCUCAACUAUGACACGCAAAACGCGUGCUCCGUUGAAUGGAGUUUAUCAUG

Variants of: B1
Assay: polymerase ribozyme fitness, log enrichment relative to wild type (log ratio); higher = more active; in vitro selection for triplet polymerase activity
In short: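 In triplicate, a single round of in vitro selection was run on each mutant library, PCR-built and transcribed, covering one subunit of a heterodimeric triplet polymerase ribozyme. Frozen incubation at −7 °C followed annealing with a biotinylated primer, partner subunit and triplets, and extended constructs were then gel-excised, streptavidin-captured and taken through RT-PCR. Fitness is the logarithm of genotype enrichment over wild-type enrichment, from inverse-variance-weighted replicate averages of Illumina-sequenced inputs and outputs. […] only genotypes with ≥10 input reads and ≥1 read per output were kept.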

| Variant | polymerase ribozyme fitness (log ratio) |
| --- | --- |
| GGAUCUUCUCGAUCUAACAAAAAAGACAAAUCUGCCACAAAGCUUGAGAGCAUCUUCGGAUGCAGAGGCAGCAGCCUUCGGUGGCGCCAUAGCGCCAACGUUCUCAACUAUGACACGCAAAACGCGUGCUCCGUUGAAUGGAGCUUAUCAUG [G70A G88C U144C] | ≤ -4.2 |
| GGAUCUUCUCGAUCUAACAGAAAAGACAAAUCUGCCACAAAGCUUGAGAGCAUCUUCGGAUGAAGAGGCGGCAACCUUCGGUGGCGCGAUAGAGCCAACGUUCUCAACUAUGACACGCAAAACGCGUGCUCCGUUGAAUGGAGUUUAUCAUG [A20G C63A G74A C93A] | ≤ -4.2 |
| GGAUCUUCUCGAUCUAACUUAAAAGACAAAUCUGCCACAAAGCUUGAGAGCAUCUUCGGAUGCAGAGGCGGCAGCCUUCGGUGGUGCGAUAGCGCCAACGUUCUCAACUAUGACACGCAAAACGCGUGCUCCGUUGAAUGGGGUUUAUCAUG [A19U A20U C85U A142G] | -2.89 |
| GGAUCUUCUCGAUCUAACAAAAAAGACAAAUCUGCCUCAAAGCUACAGAGCAUCUUCGGAUGCAGAGGCGGCAGCCUUCGGUGGUGCGAUAGCGCCAACGUUCUUAACUAUGACACGCAAAACGCGUGCUCCGUUGAAUGGAGAUUAUCAUG [A37U U45A G46C C85U C105U U144A] | ≤ -4.2 |
| GGAUCUUCUCGAUCUAACAAAAAUGACAAAUCUGCCACAAAGCUUGAGAGCAACUUGGGAUGCAGAGGCGGCAGCCUUCGGUGGCGCGAUAGCGCCAACGUUCUCAACUAUGACUCGCAAAACGCGUGCUCCGUUGAAUGGAGUUUAUCAAG [A24U U53A C57G A115U U151A] | ≤ -4.2 |
| GGAUCUUCUCGAUCUAACAAAAAAGACAAAUCUGCCACAAAGCUUGAGAGCAUCUUCGGAUGCAGAGUCGGCAGCCUUCGGUGGAGCGAUAGCGCCAACGUUCUCAACUGUGACACGCAAAACGCGUGCUCGGUUGGAUGCAGUUUAUCAGG [G68U C85A A110G C132G A137G G141C U151G] | ≤ -4.2 |
| GGAUCUUCUCGAUCUAACAUAAAAGACAAAUCUGCCACAAAGCUUGAGAGCAUCAUCGGAUGCAGAGGCGGCAGCCUUCGGUGGCGCGAUAGCGCCAACGUUCUCAACUAUGACACGCAAAACGCGUGCUCCGUUGAAUGGAGUUUCUCAUG [A20U U55A A147C] | -2.31 |
| GGAUCUUCUCGAUCUAACAAAAAAGACAAAUCUGCCACAAAGCUUGAGAGCAUCAUCGGAUGCAGAGGCGGCAGCCUUCGGUGGCGCGAUAGUGUUAACGUUCUCAACUAUGACACGCAAAACGCGUGCUCCGUUGAAUGGAGUUUAUCAUG [U55A C93U C95U C96U] | -3 |
| GGAUCUUCUCGAUCUAACAAAGAAGAAAGAUCUGCCAUAAAGCUUGAGACCAUCUUCGGAUGCAGAGGCGGUAGCCUUCGGUGACGCGAUAGCGCCAACGUUCUCAACUAUGACACGAAAAACGCGUGCUCCGUUGAAUGGAGUUUAUCAUG [A22G C27A A29G C38U G50C C72U G84A C118A] | ≤ -4.2 |
| GGAUCUUGUCGAUCUUACAAAAAAGACAAAUCUGCCACAAAGCUUGAGAGCAUCUUCGGAUGCAGAGGCGGCAGCCUUGGGUGGCGCGAUAGCGCCAACGUUCUCAACUAUGACACGCAAAACGCGUGCUCCGUUGAAUGAAGUUUAUCAUG [C8G A16U C79G G141A] | ≤ -4.2 |
| GGAUCUUCUCGAUCUAACAUAAAAGACAAAUCUGCCACAAAGCUUGAGAGCAUCUUCGGAUGCAGAGGCGGCAGCCUUCGGUGGCGCGAUAGCGCCAACGUUCUCAACUAUGACACGCAAAUCGCGUGCUCCGUUGAAUGGAGGUUAUCAUG [A20U A122U U144G] | -0.756 |
| GGAUCUUCUCGAUCUAACAAAAAAGACAAAGUUGCCACAAAGCUUGAGAGCAUCUUCGGAUGCAGAGGCGGCAGGCUUCGGUGGCGCGAUAGCGCCAGCGUUCUCAACUAUGACACGCAACACGCGUGCUCCAUUGAAUGGAGUUUAUCAUG [U31G C32U C75G A98G A121C G133A] | ≤ -4.2 |
| GGAUCUUCUCGAUCUAACAAAAAAGACAAAUCUGCCACAAAGCUUGAGAGCAUCUUCGGAUGCAGAGGCGGCAGCCUUCGGUGGCGCGAUAGCGCCGAGGUUCUCAACUAUGACACGCAAAACGCGUGCUCCGUUGAAUGGAGUUUAUCAUG [A97G C99G] | -0.579 |
| GGAUCUUCUCGAUCUAACAAAAAAGACAAAUCUGCCACAAAGCUUGAGAGCAUCUUCGGAUGCAGAGGCGGCAGCCUUCGGUGGCGCGAUAGCGCCAACGUUCUCAACUAUGACACGCAAAACGCGAGCUCCGCUGAAUGCAGUUUAUCAUG [U127A U134C G141C] | -3.82 |
| GGGUGUUCUCGAUCCAACAAAAAAGACAAAUCUGCCACAAAGCUUGAGAGCAUCUUCGGAUGCAGAGGCGGCAGCCUUCGGUGUCGCGAUAGCGCCAACGUUCUCAAUUAUGACACGCAAUACGCGUGCUCCGUUGAAUGGAGUUUAUCAUG [A3G C5G U15C G84U C108U A121U] | ≤ -4.2 |
| GGAUCUUCUCGAUCUAACAAAAAAGACAAAUCUGCCACAAAGCUUGAGAGCAUCUUCAGAUGCAGAGGCGGCAGCCUUCGGUGGCGCGAUAGCGCCAACGUUUUCAACUAUGACACGAAAAACGCGUGCUCAGUUGACUGGAGUUUAUCAUG [G58A C103U C118A C132A A138C] | ≤ -4.2 |
| GGAUCUUCUCGAUCUAACAAAAAAGACAAAUCUGCCACAACGCUUGAGAGCAUCUACGGAUGCAGAGGCGGCAGCCUUCGGUGGCGCGAUGGCGCCGACGUUCUCAACUAUGACACGCAAAACGCGUGCUCCGUUGAAUGGUGUUUAUCAUG [A41C U56A A91G A97G A142U] | -3.86 |
| GGAUCUUCUCGAUCUAACAAAAAAGACAAAUCUGCCACAAAGCUUGAGAGCAUCUUCGGAUGCAGAGGCGGCAGCCUUCGGUGGCGCGAUAGUGCCAACGUUCUCAACUAUGACUCGCAGAACGCGUGCUCCGUUGAAUGGAGUUUAUCAUG [C93U A115U A120G] | -2.4 |
| GGAUCUUCUCGAUCUAACAAAAAAGACAAAUCUGCCACAAAGCUUGAGAGCAUCUACGGAUGCAGAGGCGGCAGCCUUCGGUGGCGCGAUAGCGCCAACGUUCUCAACUAUGGCACGCAAAACGCGUGCUCCGUUGAAUGGAGUUUAUCAUG [U56A A113G] | -1.32 |
